The text below walks through data of patent US7001892B1, “Pharmaceutical materials and methods for their preparation and use” (Purdue Research Foundation, priority 1999, dated 2006).

Read-outs that look alike come from different tables or passages of the source.

A short description of data set [1]: Level of inclusion of guest protein/peptide in host crystals (labeled-insulin/lactose crystals dissolved in PBS and analyzed by HPLC). Format: physicochemical. The conditions noted are these: rhodamine-labeled glucagon in α-lactose monohydrate crystals.
Method: To investigate the potential for incorporation of a biopharmaceutical into crystals of biocompatible excipients, studies were conducted using rhodamine-labeled glandular glucagon and lactose. As in the previous studies, the rhodamine label was used to facilitate the visualization of glucagon in the host crystals. Typical crystal growth conditions involved the addition of 5 volumes of a supersaturated solution of deionized α-lactose monohydrate to 1 volume of an approximately 1.5 mg/mL (approximately 300 to 400 μmole) of rhodamine-labeled glucagon in purified water. The mixed solution was allowed to stand at room temperature in a 24-well plate.
For data set [2] the following is noted: cited from earlier work; for storage time after reconstitution: reconstituted with 0.9% benzyl alcohol.
For data set [3] the following is noted: cited from earlier work.
For data set [4] the following is noted: vs. 2% in placebo; cited from earlier work.

As to “rhodamine-labeled glucagon: glandular glucagon carrying a rhodamine label to visualize it in the host crystals”, the level of inclusion entry in data set [1] is given as “approximately 0.1 % (w/w)”.

As to Protropin, in data set [2] (refrigerated temperatures), the “storage time after reconstitution” value is recorded as “stored at refrigerated temperature, the reconstituted product is good for 14 days at refrigerated”.

Turning to Leukine, the “storage time after reconstitution” value in data set [2] (refrigerated temperatures) is below 20 days. In data set [2] (reconstituted with sterile water, refrigerated temperatures), the “reconstituted solution stable for” value was below 6 h. In addition, in data set [3] (GM-CSF), the specific activity result is recorded as “Additional Information: Specific activity is 5 × 10^7 colony forming units per mg protein. Sargramostim”.

Take Actimmune: in data set [3] (interferon gamma-1b), the activity result was “dimeric form in solution, activity or 30 million units/mg”.

Take Activase: the “time diluted solution can be held” value in data set [2] (1 mg/mL solution diluted 1:1 with 0.9% NaCl or D5W, room temperature) was 8 h. For the same molecule, the “effect of preservatives on the product” value in data set [2] (preserved water or addition of preservatives) is “precipitation”. For the same molecule, the activity in data set [3] (T-PA glycoprotein) is on record as 580,000 IU/mg.

B1: Actimmune (protein, UniProt P01579 24-161, looked up)
Interferon gamma: QDPYVKEAENLKKYFNAGHSDVADNGTLFLGILKNWKEESDRKIMQSQIVSFYFKLFKNFKDDQSIQKSVETIKEDMNVKFFNSNKKKRDDFEKLTNYSVTDLNVQRKAIHELIQVMAELSPAAKTGKRKRSQMLFRG
modifications: interferon gamma-1b
Regarding B1, the injection site irritation result in data set [4] is given as “Additional Information: 14% injection site irritation vs. 2% in placebo. Cost $140 for 50 μg”.
